{"source": "patent US20180021429A1", "about": "“ANTICANCER AGENTS OR ANTIMETASTATIC AGENTS USING FSTL1 AND COMBINATION DRUG THEREOF” (PHARMA FOODS INTERNATIONAL CO., LTD., priority 2015, published 2018)", "molecules": {"B1": {"name": "#8-8: chicken-mouse chimeric anti-FSTL1 antibody clone; variable regions SEQ ID NO: 803 (light), 805 (heavy) (antibody, V domains shown)", "VH": "AVTLDESGGGLQTPGGALSLVCKGSGFTFSSFNMFWVRQAPGKGLEWVAGIGKDGVPKYGAAVDGRATISKDNGQSTMRLQLNNLRAEDTGTYYCAKAAGGCSYGWCGAYTGDIDTWGHGTEVIVSS", "VL": "ASTQPSSVSANPGEAVKITCSGGSGSYYGWYQQKSPGSAPVTVIYNNNQRPSDIPSRFSGSKSGSTATLTITGVQVEDEAVYFCGGYDSSTGHGGIFGAGTTLTVL", "modifications": "mouse constant regions"}}, "key": {"FSTL1": {"target": "T1, FSTL1 (Homo sapiens, UniProt Q12841)", "T1 sequence (Q12841 21-308)": "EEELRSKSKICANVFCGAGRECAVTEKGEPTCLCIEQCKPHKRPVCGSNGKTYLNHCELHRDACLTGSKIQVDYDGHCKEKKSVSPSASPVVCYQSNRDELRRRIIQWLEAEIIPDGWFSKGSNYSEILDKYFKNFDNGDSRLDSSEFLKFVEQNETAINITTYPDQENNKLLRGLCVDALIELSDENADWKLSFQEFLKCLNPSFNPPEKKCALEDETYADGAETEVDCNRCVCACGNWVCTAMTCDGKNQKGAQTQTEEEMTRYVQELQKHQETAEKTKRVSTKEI", "test": "Inhibition of MSC induction by FSTL1 in mouse bone marrow cells, CD45-negative cells (Examples 6, 8, 12)", "assay_type": "cell-based", "parameters": "purchased R&D Systems, Inc. 1694-FN-050", "details": "Example 8; FSTL1 20 ng/mL, antibody 10 μg/mL, 8 days", "experimental": "(§1) Mouse bone marrow cells prepared in the same way as in Example 4 were supplemented with 50 ng/mL (final concentration) of FSTL1 and 10 μg/mL of the anti-FSTL1 antibody (#5-2, #5-3, #5-8, #5-10, 45-43, #6-55, or #7-34) or a control antibody anti-DNP antibody and cultured under stimulation. 11 days thereafter, the number of cells was counted while the cells were stained with a PE-Cy5-labeled anti-CD45 antibody (BD Pharmingen/Becton, Dickinson and Company, Cat. No. 555484), and the content of CD45− negative cells reported to generally contain MSCs at a high rate was analyzed by flow cytometry using FACScan to calculate the percentage and number of MSCs per culture (FIG. 67A).\n(§2) Mouse bone marrow cells prepared in the same way as in Example 4 were supplemented with 20 ng/mL (final concentration) of FSTL1 and 10 μg/mL of the anti-FSTL1 antibody (#5-2, #5-3, #5-8, #5-10, #5-43, #6-55, #8-1, #8-4, #8-7, and #8-8) or a control antibody anti-DNP antibody and cultured under stimulation. 8 days thereafter, the number of cells was counted while the cells were stained with a PE-Cy5-labeled anti-CD45 antibody, and the content of CD45− negative cells was analyzed by flow cytometry using FACScan to calculate the percentage and number of MSCs per culture (FIG. 68A).\nas §2, with “(#5-2,” for “(#5-2, #5-3,”, “#5-8,” for “#5-8, #5-10, #5-43,”, “#6-55, #7-34,” for “#6-55,”, “#8-7, or” for “#8-7, and”, “(FIG. 69).” for “(FIG. 68A).”"}, "[1]": {"test_system": "induction of mesenchymal stem cells (MSCs) by FSTL1", "test": "Inhibitory activity against induction of MSC by FSTL1, CD45-negative cells (Examples 6, 8, 12)", "assay_type": "cell-based, mouse", "details": "Example 8, FIG. 6A/36A; FSTL1 20 ng/mL; antibody 10 μg/mL; 8 days", "experimental": "as §1, with “CD45-negative” for “CD45− negative”, “5A).” for “67A).”\nas §2, with “CD45-negative” for “CD45− negative”, “6A).” for “68A).”\nas §2, with “(#5-2,” for “(#5-2, #5-3,”, “#5-8,” for “#5-8, #5-10, #5-43,”, “#6-55, #7-34,” for “#6-55,”, “#8-7, or” for “#8-7, and”, “of CD45-negative” for “of CD45− negative”, “(FIG. 7).” for “(FIG. 68A).”\nas §1, with “CD45-negative” for “CD45− negative”, “35A).” for “67A).”\nas §2, with “CD45-negative” for “CD45− negative”, “36A).” for “68A).”\nas §2, with “(#5-2,” for “(#5-2, #5-3,”, “#5-8,” for “#5-8, #5-10, #5-43,”, “#6-55, #7-34,” for “#6-55,”, “#8-7, or” for “#8-7, and”, “of CD45-negative” for “of CD45− negative”, “(FIG. 37).” for “(FIG. 68A).”"}}}
{"molecule": "B1", "values": [{"measurement": "inhibitory activity against the expansion of CD45-negative cells by FSTL1", "setting": "FSTL1", "result": "Inhibitory activity was confirmed"}, {"measurement": "inhibitory activity against the expansion of CD45-negative cells by FSTL1", "setting": "[1]", "result": "Inhibitory activity was confirmed"}]}
